The target of this assay is CXCL12 (chemokine (C-X-C motif) ligand 12) (UniProt P48061). Briefly: NMR titration.
Chain of CXCL12 (chemokine (C-X-C motif) ligand 12) (P48061 22-89): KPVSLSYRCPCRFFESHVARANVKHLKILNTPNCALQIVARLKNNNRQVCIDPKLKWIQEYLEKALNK

Take “Ac-pep (synthetic peptide corresponding to the HMGB1 acidic IDR) (from UniProt P63158 186-214)”: the dissociation constant Kd worked out at 200 nM. That is a sub-micromolar value.

The Kd is the equilibrium constant for the complex coming apart.

Source of the values: publication doi:10.1101/2023.06.06.543836.
